Assay results: patent CN117138036A (NANJING RONGJIEKANG BIOTECHNOLOGY CO LTD, dated 2023)
Values belong to the binder of their own block, whether it stands above or below them.

Experiments:
IL-4Rα = IL-4Rα (UniProt P24394 26-232, limits assumed); assay: cell-based or functional assay
IL-5 = IL-5 (human, UniProt P05113 20-134); assay: cell-based or functional assay
Sequence of IL-5 (P05113 20-134 limits assumed): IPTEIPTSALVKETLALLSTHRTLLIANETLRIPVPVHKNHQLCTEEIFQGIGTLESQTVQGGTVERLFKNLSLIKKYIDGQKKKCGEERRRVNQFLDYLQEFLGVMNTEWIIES

B1: 4E9V0 (VHH)
VHH: QVQLVESGGGSVQAGGSLRLSCAASGDFYCMAWFRQAPGKEREGVATIRSGGRSTYYADSVKGRFTISKDNAKDTLYLQMNSLKPEDTAMYYCAVGVDGNCRNYWGQGTQVTVSS
EC50, 中和IL-4诱导的TF-1细胞增殖 (IL-4Rα): 0.281 nM | EC50, 中和IL-13诱导的TF-1细胞增殖 (IL-4Rα): 0.229 nM

B2: 2B3 (VHH)
VHH: QVQLVESGGGSVQAGGSLRLSCAASGNTFSFSTYCMGWFRQSPGKEREGSLATIYDGSTAYAGSVKGRFTISVDNAKNILYLQMNNLKPEDTAMYYCAAAKYCMFWSDPSYWGQGTQVTVSS
EC50, 中和IL-5诱导的TF-1细胞增殖 (IL-5): 0.336 nM

Second part, the binder after the results:

EC50, 中和IL-5诱导的TF-1细胞增殖 (IL-5): 0.122 nM
B3: reslizumab (antibody, V domains shown)
VH: EVQLVESGGGLVQPGGSLRLSCAVSGLSLTSNSVNWIRQAPGKGLEWVGLIWSNGDTDYNSAIKSRFTISRDTSKSTVYLQMNSLRAEDTAVYYCAREYYGYFDYWGQGTLVTVSS
VL: DIQMTQSPSSLSASVGDRVTITCLASEGISSYLAWYQQKPGKAPKLLIYGANSLQTGVPSRFSGSGSATDYTLTISSLQPEDFATYYCQQSYKFPNTFGQGTKVEVK

EC50, 中和IL-4诱导的TF-1细胞增殖 (IL-4Rα): 0.13 nM | EC50, 中和IL-13诱导的TF-1细胞增殖 (IL-4Rα): 0.178 nM
B4: dupilumab (antibody, V domains shown)
VH: EVQLVESGGGLEQPGGSLRLSCAGSGFTFRDYAMTWVRQAPGKGLEWVSSISGSGGNTYYADSVKGRFTISRDNSKNTLYLQMNSLRAEDTAVYYCAKDRLSITIRPRYYGLDVWGQGTTVTVSS
VL: DIVMTQSPLSLPVTPGEPASISCRSSQSLLYSIGYNYLDWYLQKSGQSPQLLIYLGSNRASGVPDRFSGSGSGTDFTLKISRVEAEDVGFYYCMQALQTPYTFGQGTKLEIKR
